Test results from the RNAGym collection of RNA variant scans (doi:10.1021/acssynbio.7b00057).

B1: Pistol ribozyme (parent)
chain: GGGUCGUUGUUCCAUAAUCGCGUGGAUAUGGCACGCAAGUUUCUACCGGGCACCGUAAAUGUCCGACUGGAGCCGUUCGGGCGGCUAUAAACAGACCUCAGGCCCGAAGCGUGGCGGCACCUGCCGCCGGUGGUAAAAAAGAUCGGAAGAGCACACGUCU

Variants of: B1
Assay: aptazyme ON/OFF ratio, guanine; higher = stronger switching; co-transcriptional cleavage with and without guanine

| Variant | aptazyme ON/OFF ratio |
| --- | --- |
| GGGUCGAACGGACAUAAUCGCGUGGAUAUGGCACGCAAGUUUCUACCGGGCACCGUAAAUGUCCGACUGGAGCCGUUCGGGCGGCUAUAAACAGACCUCAGGCCCGAAGCGUGGCGGCACCUGCCGCCGGUGGUAAAAAAGAUCGGAAGAGCACACGUCU | 1.76 |
| GGGUCGAACGGGCAUAAUCGCGUGGAUAUGGCACGCAAGUUUCUACCGGGCACCGUAAAUGUCCGACUGGAGCCGUUCGGGCGGCUAUAAACAGACCUCAGGCCCGAAGCGUGGCGGCACCUGCCGCCGGUGGUAAAAAAGAUCGGAAGAGCACACGUCU | 1.56 |
| GGGUCGAACGAAAAUAAUCGCGUGGAUAUGGCACGCAAGUUUCUACCGGGCACCGUAAAUGUCCGACUGGAGCCGUUCGGGCGGCUAUAAACAGACCUCAGGCCCGAAGCGUGGCGGCACCUGCCGCCGGUGGUAAAAAAGAUCGGAAGAGCACACGUCU | 1.17 |
| GGGUCGAACGAAUAUAAUCGCGUGGAUAUGGCACGCAAGUUUCUACCGGGCACCGUAAAUGUCCGACUGGAGCCGUUCGGGCGGCUAUAAACAGACCUCAGGCCCGAAGCGUGGCGGCACCUGCCGCCGGUGGUAAAAAAGAUCGGAAGAGCACACGUCU | 1.2 |
| GGGUCGAACGAAGAUAAUCGCGUGGAUAUGGCACGCAAGUUUCUACCGGGCACCGUAAAUGUCCGACUGGAGCCGUUCGGGCGGCUAUAAACAGACCUCAGGCCCGAAGCGUGGCGGCACCUGCCGCCGGUGGUAAAAAAGAUCGGAAGAGCACACGUCU | 1.12 |
| GGGUCGAACGCUUAUAAUCGCGUGGAUAUGGCACGCAAGUUUCUACCGGGCACCGUAAAUGUCCGACUGGAGCCGUUCGGGCGGCUAUAAACAGACCUCAGGCCCGAAGCGUGGCGGCACCUGCCGCCGGUGGUAAAAAAGAUCGGAAGAGCACACGUCU | 1.24 |
| GGGUCGAACGCUAAUAAUCGCGUGGAUAUGGCACGCAAGUUUCUACCGGGCACCGUAAAUGUCCGACUGGAGCCGUUCGGGCGGCUAUAAACAGACCUCAGGCCCGAAGCGUGGCGGCACCUGCCGCCGGUGGUAAAAAAGAUCGGAAGAGCACACGUCU | 1.15 |
| GGGUCGAACGCUGAUAAUCGCGUGGAUAUGGCACGCAAGUUUCUACCGGGCACCGUAAAUGUCCGACUGGAGCCGUUCGGGCGGCUAUAAACAGACCUCAGGCCCGAAGCGUGGCGGCACCUGCCGCCGGUGGUAAAAAAGAUCGGAAGAGCACACGUCU | 1.19 |
| GGGUCGAACGAGCAUAAUCGCGUGGAUAUGGCACGCAAGUUUCUACCGGGCACCGUAAAUGUCCGACUGGAGCCGUUCGGGCGGCUAUAAACAGACCUCAGGCCCGAAGCGUGGCGGCACCUGCCGCCGGUGGUAAAAAAGAUCGGAAGAGCACACGUCU | 1.32 |
| GGGUCGAACGAUCAUAAUCGCGUGGAUAUGGCACGCAAGUUUCUACCGGGCACCGUAAAUGUCCGACUGGAGCCGUUCGGGCGGCUAUAAACAGACCUCAGGCCCGAAGCGUGGCGGCACCUGCCGCCGGUGGUAAAAAAGAUCGGAAGAGCACACGUCU | 1.03 |
| GGGUCGAACGAUAAUAAUCGCGUGGAUAUGGCACGCAAGUUUCUACCGGGCACCGUAAAUGUCCGACUGGAGCCGUUCGGGCGGCUAUAAACAGACCUCAGGCCCGAAGCGUGGCGGCACCUGCCGCCGGUGGUAAAAAAGAUCGGAAGAGCACACGUCU | 1.11 |
| GGGUCGAACGAUGAUAAUCGCGUGGAUAUGGCACGCAAGUUUCUACCGGGCACCGUAAAUGUCCGACUGGAGCCGUUCGGGCGGCUAUAAACAGACCUCAGGCCCGAAGCGUGGCGGCACCUGCCGCCGGUGGUAAAAAAGAUCGGAAGAGCACACGUCU | 1.13 |
| GGGUCGAACGAUUAUAAUCGCGUGGAUAUGGCACGCAAGUUUCUACCGGGCACCGUAAAUGUCCGACUGGAGCCGUUCGGGCGGCUAUAAACAGACCUCAGGCCCGAAGCGUGGCGGCACCUGCCGCCGGUGGUAAAAAAGAUCGGAAGAGCACACGUCU | 1.1 |
| GGGUCGAACGGAAAUAAUCGCGUGGAUAUGGCACGCAAGUUUCUACCGGGCACCGUAAAUGUCCGACUGGAGCCGUUCGGGCGGCUAUAAACAGACCUCAGGCCCGAAGCGUGGCGGCACCUGCCGCCGGUGGUAAAAAAGAUCGGAAGAGCACACGUCU | 1.4 |
| GGGUCGAACGGAUAUAAUCGCGUGGAUAUGGCACGCAAGUUUCUACCGGGCACCGUAAAUGUCCGACUGGAGCCGUUCGGGCGGCUAUAAACAGACCUCAGGCCCGAAGCGUGGCGGCACCUGCCGCCGGUGGUAAAAAAGAUCGGAAGAGCACACGUCU | 1.41 |
| GGGUCGAACGGAGAUAAUCGCGUGGAUAUGGCACGCAAGUUUCUACCGGGCACCGUAAAUGUCCGACUGGAGCCGUUCGGGCGGCUAUAAACAGACCUCAGGCCCGAAGCGUGGCGGCACCUGCCGCCGGUGGUAAAAAAGAUCGGAAGAGCACACGUCU | 1.17 |
| GGGUCGAACGAGGAUAAUCGCGUGGAUAUGGCACGCAAGUUUCUACCGGGCACCGUAAAUGUCCGACUGGAGCCGUUCGGGCGGCUAUAAACAGACCUCAGGCCCGAAGCGUGGCGGCACCUGCCGCCGGUGGUAAAAAAGAUCGGAAGAGCACACGUCU | 1.21 |
| GGGUCGAACGAGUAUAAUCGCGUGGAUAUGGCACGCAAGUUUCUACCGGGCACCGUAAAUGUCCGACUGGAGCCGUUCGGGCGGCUAUAAACAGACCUCAGGCCCGAAGCGUGGCGGCACCUGCCGCCGGUGGUAAAAAAGAUCGGAAGAGCACACGUCU | 1.13 |

| Variant | aptazyme ON/OFF ratio |
| --- | --- |
| GGGUCGAACGAGAAUAAUCGCGUGGAUAUGGCACGCAAGUUUCUACCGGGCACCGUAAAUGUCCGACUGGAGCCGUUCGGGCGGCUAUAAACAGACCUCAGGCCCGAAGCGUGGCGGCACCUGCCGCCGGUGGUAAAAAAGAUCGGAAGAGCACACGUCU | 1.26 |
| GGGUCGAACGCAAAUAAUCGCGUGGAUAUGGCACGCAAGUUUCUACCGGGCACCGUAAAUGUCCGACUGGAGCCGUUCGGGCGGCUAUAAACAGACCUCAGGCCCGAAGCGUGGCGGCACCUGCCGCCGGUGGUAAAAAAGAUCGGAAGAGCACACGUCU | 1.19 |
| GGGUCGAACGCAUAUAAUCGCGUGGAUAUGGCACGCAAGUUUCUACCGGGCACCGUAAAUGUCCGACUGGAGCCGUUCGGGCGGCUAUAAACAGACCUCAGGCCCGAAGCGUGGCGGCACCUGCCGCCGGUGGUAAAAAAGAUCGGAAGAGCACACGUCU | 1.23 |
| GGGUCGAACGCAGAUAAUCGCGUGGAUAUGGCACGCAAGUUUCUACCGGGCACCGUAAAUGUCCGACUGGAGCCGUUCGGGCGGCUAUAAACAGACCUCAGGCCCGAAGCGUGGCGGCACCUGCCGCCGGUGGUAAAAAAGAUCGGAAGAGCACACGUCU | 1.08 |
| GGGUCGAACGCGUAUAAUCGCGUGGAUAUGGCACGCAAGUUUCUACCGGGCACCGUAAAUGUCCGACUGGAGCCGUUCGGGCGGCUAUAAACAGACCUCAGGCCCGAAGCGUGGCGGCACCUGCCGCCGGUGGUAAAAAAGAUCGGAAGAGCACACGUCU | 1.22 |
| GGGUCGAACGCGAAUAAUCGCGUGGAUAUGGCACGCAAGUUUCUACCGGGCACCGUAAAUGUCCGACUGGAGCCGUUCGGGCGGCUAUAAACAGACCUCAGGCCCGAAGCGUGGCGGCACCUGCCGCCGGUGGUAAAAAAGAUCGGAAGAGCACACGUCU | 1.36 |
| GGGUCGAACGCGGAUAAUCGCGUGGAUAUGGCACGCAAGUUUCUACCGGGCACCGUAAAUGUCCGACUGGAGCCGUUCGGGCGGCUAUAAACAGACCUCAGGCCCGAAGCGUGGCGGCACCUGCCGCCGGUGGUAAAAAAGAUCGGAAGAGCACACGUCU | 1.39 |
| GGGUCGAACGGCCAUAAUCGCGUGGAUAUGGCACGCAAGUUUCUACCGGGCACCGUAAAUGUCCGACUGGAGCCGUUCGGGCGGCUAUAAACAGACCUCAGGCCCGAAGCGUGGCGGCACCUGCCGCCGGUGGUAAAAAAGAUCGGAAGAGCACACGUCU | 1.66 |
| GGGUCGAACGCCCAUAAUCGCGUGGAUAUGGCACGCAAGUUUCUACCGGGCACCGUAAAUGUCCGACUGGAGCCGUUCGGGCGGCUAUAAACAGACCUCAGGCCCGAAGCGUGGCGGCACCUGCCGCCGGUGGUAAAAAAGAUCGGAAGAGCACACGUCU | 1.1 |
| GGGUCGAACGACGAUAAUCGCGUGGAUAUGGCACGCAAGUUUCUACCGGGCACCGUAAAUGUCCGACUGGAGCCGUUCGGGCGGCUAUAAACAGACCUCAGGCCCGAAGCGUGGCGGCACCUGCCGCCGGUGGUAAAAAAGAUCGGAAGAGCACACGUCU | 1.09 |
| GGGUCGAACGACUAUAAUCGCGUGGAUAUGGCACGCAAGUUUCUACCGGGCACCGUAAAUGUCCGACUGGAGCCGUUCGGGCGGCUAUAAACAGACCUCAGGCCCGAAGCGUGGCGGCACCUGCCGCCGGUGGUAAAAAAGAUCGGAAGAGCACACGUCU | 1.04 |
| GGGUCGAACGACAAUAAUCGCGUGGAUAUGGCACGCAAGUUUCUACCGGGCACCGUAAAUGUCCGACUGGAGCCGUUCGGGCGGCUAUAAACAGACCUCAGGCCCGAAGCGUGGCGGCACCUGCCGCCGGUGGUAAAAAAGAUCGGAAGAGCACACGUCU | 1.04 |
| GGGUCGAACGCCAAUAAUCGCGUGGAUAUGGCACGCAAGUUUCUACCGGGCACCGUAAAUGUCCGACUGGAGCCGUUCGGGCGGCUAUAAACAGACCUCAGGCCCGAAGCGUGGCGGCACCUGCCGCCGGUGGUAAAAAAGAUCGGAAGAGCACACGUCU | 1.09 |
| GGGUCGAACGCCGAUAAUCGCGUGGAUAUGGCACGCAAGUUUCUACCGGGCACCGUAAAUGUCCGACUGGAGCCGUUCGGGCGGCUAUAAACAGACCUCAGGCCCGAAGCGUGGCGGCACCUGCCGCCGGUGGUAAAAAAGAUCGGAAGAGCACACGUCU | 1.04 |
| GGGUCGAACGCCUAUAAUCGCGUGGAUAUGGCACGCAAGUUUCUACCGGGCACCGUAAAUGUCCGACUGGAGCCGUUCGGGCGGCUAUAAACAGACCUCAGGCCCGAAGCGUGGCGGCACCUGCCGCCGGUGGUAAAAAAGAUCGGAAGAGCACACGUCU | 1.04 |
| GGGUCGAACGCACAUAAUCGCGUGGAUAUGGCACGCAAGUUUCUACCGGGCACCGUAAAUGUCCGACUGGAGCCGUUCGGGCGGCUAUAAACAGACCUCAGGCCCGAAGCGUGGCGGCACCUGCCGCCGGUGGUAAAAAAGAUCGGAAGAGCACACGUCU | 1.81 |
| GGGUCGAACGCGCAUAAUCGCGUGGAUAUGGCACGCAAGUUUCUACCGGGCACCGUAAAUGUCCGACUGGAGCCGUUCGGGCGGCUAUAAACAGACCUCAGGCCCGAAGCGUGGCGGCACCUGCCGCCGGUGGUAAAAAAGAUCGGAAGAGCACACGUCU | 1.27 |
| GGGUCGAACGCUCAUAAUCGCGUGGAUAUGGCACGCAAGUUUCUACCGGGCACCGUAAAUGUCCGACUGGAGCCGUUCGGGCGGCUAUAAACAGACCUCAGGCCCGAAGCGUGGCGGCACCUGCCGCCGGUGGUAAAAAAGAUCGGAAGAGCACACGUCU | 1.13 |
